The values that follow come from patent publication US20200216522A1 (DENALI THERAPEUTICS, published 2020).

In assay [1] the target is T1, full-length human Tau (Tau441; 2N4R), recombinant (human, UniProt P10636 1-758).
T1 construct: made in E. coli, His6-Smt3 tag removed; biotinylated through amines for Octet and phage work; also called r-Tau; recombinant Tau
The assay can be described thus: SPR Biacore. Background: SPR reads the build-up and loss of mass on a sensor chip optically.

The target in assay [2] is human Tau splice isoform 0N4R (Tau383) (human, UniProt P10636 1-758). The assay can be described thus: Fab ELISA. The procedure:
(§1) Half-area ELISA plates (Costar™) were coated overnight at 4° C. with 25 μL per well of 0.5 μg/mL r-Tau or p-Tau. The plates were washed three times with PBST using a BioTek® plate washer. The plates were then blocked for one hour at room temperature with 100 μL per well of PBSA. After washing three times with PBST, the periplasmically-expressed Fabs were added ([…]) and the plates were incubated for one hour. The plates were subsequently washed three times with PBST, and 25 μL per well of PBSA containing a 1:5,000 dilution of HRP-conjugated rabbit anti-human kappa (obtained from Bethyl Laboratories) was added. The plates were incubated at room temperature for 30 minutes, then washed three times with PBST. The plates were developed by adding 25 μL per well of TMB substrate (obtained from Thermo Fisher) and quenched with 2N H₂SO₄. The signal was quantified on a BioTek® plate reader at A₄₅₀. Wells with signal greater than 5-fold over background for both r-Tau and p-Tau were considered positive and the clones were re-arrayed from the primary culture for confirmation of binding (by repeat of ELISA) and sequencing of the variable regions.
(§2) ELISAs were performed essentially as described above, but coating was performed using 1 μg/mL of each recombinant Tau species and using a 1:1 dilution (in PBS with 0.1% BSA, 0.05% Tween®) of Fab containing supernatant. The results of the ELISAs, showing Fab binding to cyno Tau and mouse Tau, as well as binding to phosphorylated full-length human Tau and the human Tau isoforms, are shown in Table 1 below.
(In an ELISA, binding on a coated surface is turned into a signal by an enzyme label.)

Assay [3] deals with T1, full-length human Tau (Tau441; 2N4R), …. The assay can be described thus: Fab ELISA. Here is the method:
as §1, §2

Assay [4] deals with human Tau splice isoform 2N3R (Tau410) (human, UniProt P10636 1-758). The assay can be described thus: Fab ELISA. Here is the method: as §1, §2
Assay [5] concerns the target human Tau splice isoform 1N4R (Tau412) (human, UniProt P10636 1-758). The assay can be described thus: Fab ELISA. The procedure: as §1, §2
The target of assay [6] is T2, hyperphosphorylated recombinant human Tau441 (p-Tau) (human, UniProt P10636 1-758, phosphorylated in vitro with PKA and GSK3beta; sites not listed).
T2 construct: also called p-Tau (2N4R); phosphorylated r-Tau
The assay can be described thus: Fab ELISA. The procedure: as §1, §2

Assay [7] deals with human Tau splice isoform 1N3R (Tau381) (human, UniProt P10636 1-758). The assay can be described thus: Fab ELISA. The procedure:
as §1, §2

The next assay has as its target mouse Tau (mouse, UniProt P10637 2-733). The assay can be described thus: Fab ELISA. Here is the method: as §1, §2
The next assay deals with T3, cynomolgus monkey Tau (cynomolgus monkey, UniProt P57786 2-459 (rhesus entry)).
T3 construct: also called cyno Tau; cyno-Tau
The assay can be described thus: Fab ELISA. The procedure: as §1, §2

Assay [8] has as its target T4, N-terminal truncated human Tau (Tau(50-441)) (human, UniProt P10636 50-758).
T4 construct: also called 50-441 (2N4R)
The assay can be described thus: Fab ELISA. Here is the method:
as §1, §2

In assay [9] the target is human Tau splice isoform 0N3R (Tau352) (human, UniProt P10636 1-758). The assay can be described thus: Fab ELISA. Here is the method: as §1, §2
The target in assay [10] is T5, C-terminal truncated human Tau (Tau(1-421)) (human, UniProt P10636 1-738).
T5 construct: also called 1-421 (2N4R)
The assay can be described thus: Fab ELISA. The procedure: as §1, §2

Assay [11] deals with T1, full-length human Tau (Tau441; 2N4R), …. The assay can be described thus: SPR Biacore. The procedure:
(§3) IgG was purified with protein A affinity chromatography. The affinity of each hulC7 IgG variant for r-Tau was determined by surface plasmon resonance using a Biacore™ T200 instrument. Biacore™ Series S CM5 sensor chips were immobilized with monoclonal mouse anti-human IgG (Fc) antibody (Human antibody capture kit from GE Healthcare). Serial 3-fold dilutions of each hulC7 variant were injected at a flow rate of […]. Each sample was analyzed with 3-minute association and 10-minute dissociation. After each injection, the chip was regenerated using 3 M MgCl₂. Binding response was corrected by subtracting the RU from a flow cell capturing an irrelevant IgG at similar density. A 1:1 Languir model of simultaneous fitting of kₒₙ and koff was used for kinetics analysis.
This is another data set of the same source.

Assay [12] shares this target. The assay can be described thus: SPR Biacore. This is another data set of the same source.
For assay [13] the target is unchanged. The assay can be described thus: SPR Biacore. Here is the method: as §3
A further round of affinity maturation was performed by mutating certain amino acids in selected CDR-H1, CDR-L1, and CDR-L3 sequences from Table 9A, as well as the sequence of CDR-H2 (SEQ ID NO:23) of hulC7.v2. Sequence changes were identified in each CDR (Table 9B). Binding affinities were evaluated using Biacore™ (Table 10B).
This is another data set of the same source.

Residue numbers refer to the chain shown, from its start. Names and notes keep the numbering of the source. Like-named read-outs stand apart in the source and are kept apart here.

Chain of human Tau splice isoform 2N3R (Tau410) (P10636 other isoform, or with tags, fused parts or gaps limits assumed): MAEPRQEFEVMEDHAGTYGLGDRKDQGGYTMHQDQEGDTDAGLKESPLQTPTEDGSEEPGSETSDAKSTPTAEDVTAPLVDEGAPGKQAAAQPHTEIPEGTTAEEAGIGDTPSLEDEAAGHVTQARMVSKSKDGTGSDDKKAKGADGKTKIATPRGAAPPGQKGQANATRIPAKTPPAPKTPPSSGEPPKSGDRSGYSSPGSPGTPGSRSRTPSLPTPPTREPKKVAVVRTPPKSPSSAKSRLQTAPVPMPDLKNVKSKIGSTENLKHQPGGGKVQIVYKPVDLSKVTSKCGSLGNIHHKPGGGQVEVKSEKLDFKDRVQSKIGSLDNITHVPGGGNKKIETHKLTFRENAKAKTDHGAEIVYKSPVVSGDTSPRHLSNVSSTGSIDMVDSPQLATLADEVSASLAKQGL
Chain of human Tau splice isoform 0N3R (Tau352) (P10636 other isoform, or with tags, fused parts or gaps limits assumed): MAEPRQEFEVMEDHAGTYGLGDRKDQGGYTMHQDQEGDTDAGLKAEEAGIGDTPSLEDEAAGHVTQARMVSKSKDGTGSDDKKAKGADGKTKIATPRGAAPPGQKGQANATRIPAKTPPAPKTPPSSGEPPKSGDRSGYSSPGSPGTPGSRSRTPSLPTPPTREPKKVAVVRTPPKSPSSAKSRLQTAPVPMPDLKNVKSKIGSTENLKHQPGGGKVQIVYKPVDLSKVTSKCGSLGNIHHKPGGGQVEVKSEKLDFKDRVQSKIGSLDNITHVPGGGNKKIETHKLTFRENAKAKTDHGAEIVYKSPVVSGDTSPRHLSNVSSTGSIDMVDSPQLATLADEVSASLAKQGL
T5 sequence (P10636 other isoform, or with tags, fused parts or gaps limits assumed): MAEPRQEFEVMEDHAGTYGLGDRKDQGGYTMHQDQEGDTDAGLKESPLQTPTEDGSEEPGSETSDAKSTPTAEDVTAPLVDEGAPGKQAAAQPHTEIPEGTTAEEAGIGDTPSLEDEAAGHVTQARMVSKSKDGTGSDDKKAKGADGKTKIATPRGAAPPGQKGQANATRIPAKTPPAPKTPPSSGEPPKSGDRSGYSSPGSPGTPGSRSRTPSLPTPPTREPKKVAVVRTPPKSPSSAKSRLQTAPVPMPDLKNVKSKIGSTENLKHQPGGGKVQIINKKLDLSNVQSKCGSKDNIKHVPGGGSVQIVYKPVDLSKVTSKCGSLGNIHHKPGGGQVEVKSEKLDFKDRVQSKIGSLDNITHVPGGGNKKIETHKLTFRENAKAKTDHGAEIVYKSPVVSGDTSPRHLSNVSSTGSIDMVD
Chain of human Tau splice isoform 1N3R (Tau381) (P10636 other isoform, or with tags, fused parts or gaps limits assumed): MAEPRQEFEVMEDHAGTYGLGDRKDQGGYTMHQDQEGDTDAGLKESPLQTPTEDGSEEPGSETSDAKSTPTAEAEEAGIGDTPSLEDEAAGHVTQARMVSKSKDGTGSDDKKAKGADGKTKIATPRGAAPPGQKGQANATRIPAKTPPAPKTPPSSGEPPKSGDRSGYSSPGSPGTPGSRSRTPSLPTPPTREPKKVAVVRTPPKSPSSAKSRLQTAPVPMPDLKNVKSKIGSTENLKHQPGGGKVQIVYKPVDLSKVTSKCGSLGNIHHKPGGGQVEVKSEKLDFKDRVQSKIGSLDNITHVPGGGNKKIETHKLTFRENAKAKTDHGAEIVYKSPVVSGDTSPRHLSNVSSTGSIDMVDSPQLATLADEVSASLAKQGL
T4 sequence (P10636 other isoform, or with tags, fused parts or gaps limits assumed): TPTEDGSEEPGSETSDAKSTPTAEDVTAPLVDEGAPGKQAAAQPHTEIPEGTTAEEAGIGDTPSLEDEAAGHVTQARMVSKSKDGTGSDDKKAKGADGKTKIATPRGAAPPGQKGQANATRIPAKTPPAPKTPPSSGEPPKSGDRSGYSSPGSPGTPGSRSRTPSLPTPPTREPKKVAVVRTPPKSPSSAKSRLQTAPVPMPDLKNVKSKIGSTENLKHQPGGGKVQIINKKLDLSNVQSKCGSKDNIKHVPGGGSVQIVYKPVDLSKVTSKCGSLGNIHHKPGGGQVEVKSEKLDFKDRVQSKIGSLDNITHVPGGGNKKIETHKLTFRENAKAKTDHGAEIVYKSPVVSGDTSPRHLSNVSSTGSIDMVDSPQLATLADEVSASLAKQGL
Chain of mouse Tau (P10637 other isoform, or with tags, fused parts or gaps limits assumed): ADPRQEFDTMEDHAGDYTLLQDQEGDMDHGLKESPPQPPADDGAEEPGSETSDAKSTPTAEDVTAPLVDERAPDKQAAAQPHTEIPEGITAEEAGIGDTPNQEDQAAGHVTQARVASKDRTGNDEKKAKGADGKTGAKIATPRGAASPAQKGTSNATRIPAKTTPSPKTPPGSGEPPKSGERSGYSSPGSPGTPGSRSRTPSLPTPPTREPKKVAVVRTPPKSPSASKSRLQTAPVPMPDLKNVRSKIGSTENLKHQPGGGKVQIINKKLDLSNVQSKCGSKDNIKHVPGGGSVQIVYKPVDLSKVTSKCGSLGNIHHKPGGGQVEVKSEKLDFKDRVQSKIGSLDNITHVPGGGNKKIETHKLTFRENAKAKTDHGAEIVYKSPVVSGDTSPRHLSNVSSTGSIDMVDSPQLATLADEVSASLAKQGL
T1 sequence (P10636 other isoform, or with tags, fused parts or gaps limits assumed): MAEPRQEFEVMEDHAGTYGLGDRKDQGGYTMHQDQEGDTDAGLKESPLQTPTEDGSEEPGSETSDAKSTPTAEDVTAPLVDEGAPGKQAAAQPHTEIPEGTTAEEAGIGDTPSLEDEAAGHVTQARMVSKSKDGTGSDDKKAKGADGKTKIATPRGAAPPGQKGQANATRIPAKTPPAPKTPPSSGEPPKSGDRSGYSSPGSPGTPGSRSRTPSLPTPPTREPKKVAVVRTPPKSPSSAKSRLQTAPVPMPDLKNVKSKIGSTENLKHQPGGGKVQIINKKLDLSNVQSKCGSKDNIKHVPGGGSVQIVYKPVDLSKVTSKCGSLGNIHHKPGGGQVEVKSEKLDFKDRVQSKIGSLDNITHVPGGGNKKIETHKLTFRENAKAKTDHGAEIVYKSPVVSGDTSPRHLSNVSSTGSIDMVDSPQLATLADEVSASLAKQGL
Chain of human Tau splice isoform 1N4R (Tau412) (P10636 other isoform, or with tags, fused parts or gaps limits assumed): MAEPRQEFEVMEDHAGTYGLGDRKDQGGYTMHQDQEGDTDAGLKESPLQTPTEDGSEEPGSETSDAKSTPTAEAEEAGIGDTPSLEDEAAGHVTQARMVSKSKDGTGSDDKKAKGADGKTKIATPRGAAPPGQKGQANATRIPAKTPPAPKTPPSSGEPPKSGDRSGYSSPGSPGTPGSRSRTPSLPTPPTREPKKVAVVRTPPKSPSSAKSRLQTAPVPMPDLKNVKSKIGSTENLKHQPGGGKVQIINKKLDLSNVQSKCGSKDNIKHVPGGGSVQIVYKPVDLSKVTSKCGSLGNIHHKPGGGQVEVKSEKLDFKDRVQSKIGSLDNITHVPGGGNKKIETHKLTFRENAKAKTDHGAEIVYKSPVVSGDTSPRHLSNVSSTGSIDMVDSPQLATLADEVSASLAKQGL
T3 sequence (P57786 other isoform, or with tags, fused parts or gaps limits assumed): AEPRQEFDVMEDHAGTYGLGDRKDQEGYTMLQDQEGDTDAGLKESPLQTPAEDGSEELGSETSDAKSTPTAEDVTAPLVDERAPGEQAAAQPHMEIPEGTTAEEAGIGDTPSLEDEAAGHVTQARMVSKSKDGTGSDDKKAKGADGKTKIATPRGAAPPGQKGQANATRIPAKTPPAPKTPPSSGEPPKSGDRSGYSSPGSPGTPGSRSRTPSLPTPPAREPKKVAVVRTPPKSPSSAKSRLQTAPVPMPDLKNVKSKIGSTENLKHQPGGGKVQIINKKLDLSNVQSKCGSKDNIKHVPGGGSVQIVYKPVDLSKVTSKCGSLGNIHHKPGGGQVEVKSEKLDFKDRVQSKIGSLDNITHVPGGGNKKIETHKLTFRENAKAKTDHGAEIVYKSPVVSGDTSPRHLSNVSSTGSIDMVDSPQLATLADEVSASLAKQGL
Chain of human Tau splice isoform 0N4R (Tau383) (P10636 other isoform, or with tags, fused parts or gaps limits assumed): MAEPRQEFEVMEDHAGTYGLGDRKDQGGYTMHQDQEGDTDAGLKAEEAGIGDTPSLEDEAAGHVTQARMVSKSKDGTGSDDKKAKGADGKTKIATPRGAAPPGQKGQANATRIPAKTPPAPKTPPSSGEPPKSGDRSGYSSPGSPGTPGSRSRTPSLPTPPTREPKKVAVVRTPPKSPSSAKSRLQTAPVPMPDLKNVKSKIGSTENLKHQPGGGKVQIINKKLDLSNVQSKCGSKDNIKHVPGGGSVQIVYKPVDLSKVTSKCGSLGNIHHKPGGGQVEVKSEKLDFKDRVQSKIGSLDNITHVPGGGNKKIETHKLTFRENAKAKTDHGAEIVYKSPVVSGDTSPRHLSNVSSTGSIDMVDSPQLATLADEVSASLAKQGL

B1: anti-Tau antibody 1C7/3C.35.21 (antibody, human IgG1, kappa, L234A L235A)
heavy 1: EVKLVESGGGLVKPGGSLKLSCAASGFTFSSYGMSWVRQTPEKRLEWVASISGDGGSYIHYADSVKGRFTISRDSAKNTLYLQMSSLRSEDTALYYCARLPYWGQGTLVTVSAASTKGPSVFPLAPSSKSTSGGTAALGCLVKDYFPEPVTVSWNSGALTSGVHTFPAVLQSSGLYSLSSVVTVPSSSLGTQTYICNVNHKPSNTKVDKKVEPKSCDKTHTCPPCPAPEAAGGPSVFLFPPKPKDTLMISRTPEVTCVVVDVSHEDPEVKFNWYVDGVEVHNAKTKPREEQYNSTYRVVSVLTVLHQDWLNGKEYKCKVSNKALGAPIEKTISKAKGQPREPQVYTLPPSRDELTKNQVSLWCLVKGFYPSDIAVWWESYGTEWSSYKTTPPVLDSDGSFFLYSKLTVTKEEWQQGFVFSCSVMHEALHNHYTQKSLSLSPGK
heavy 2: EVKLVESGGGLVKPGGSLKLSCAASGFTFSSYGMSWVRQTPEKRLEWVASISGDGGSYIHYADSVKGRFTISRDSAKNTLYLQMSSLRSEDTALYYCARLPYWGQGTLVTVSAASTKGPSVFPLAPSSKSTSGGTAALGCLVKDYFPEPVTVSWNSGALTSGVHTFPAVLQSSGLYSLSSVVTVPSSSLGTQTYICNVNHKPSNTKVDKKVEPKSCDKTHTCPPCPAPEAAGGPSVFLFPPKPKDTLMISRTPEVTCVVVDVSHEDPEVKFNWYVDGVEVHNAKTKPREEQYNSTYRVVSVLTVLHQDWLNGKEYKCKVSNKALGAPIEKTISKAKGQPREPQVYTLPPSRDELTKNQVSLSCAVKGFYPSDIAVEWESNGQPENNYKTTPPVLDSDGSFFLVSKLTVDKSRWQQGNVFSCSVMHEALHNHYTQKSLSLSPGK
light: DIVMTQSPSSLTVTAGEKVTMSCKSSQSLLNSGNQKNYLTWYQQKPGQPPKLLIYWASTRESGVPDRFTGSGSGTDFTLTISNVQSEDLAEYFCQQYNSYPLTFGAGTKLELKRTVAAPSVFIFPPSDEQLKSGTASVVCLLNNFYPREAKVQWKVDNALQSGNSQESVTEQDSKDSTYSLSSTLTLSKADYEKHKVYACEVTHQGLSSPVTKSFNRGEC
notes: two 1C7 Fab arms; LALAPG; also called Tau^1C7/3C.35.21
With B1, the Kd (in general, the equilibrium constant for the complex coming apart) in assay [1] was 0.4 nM.

B2: Clone 1C7 Fab (Fab, V domains shown)
VH: EVKLVESGGGLVKPGGSLKLSCAASGFTFSSYGMSWVRQTPEKRLEWVASISGDGGSYIHYADSVKGRFTISRDSAKNTLYLQMSSLRSEDTALYYCARLPYWGQGTLVTVSA
VL: DIVMTQSPSSLTVTAGEKVTMSCKSSQSLLNSGNQKNYLTWYQQKPGQPPKLLIYWASTRESGVPDRFTGSGSGTDFTLTISNVQSEDLAEYFCQQYNSYPLTFGAGTKLELKR
notes: crude periplasmic Fab; mouse V regions joined to human CH1 and human kappa constant
B2: the A450 avg. in [2] is 2.66; in assay [3], 2.73; in assay [4], 2.75; in [5], 2.69; in [6], 2.24; in assay [7] it was 2.7. For the same molecule, the A450 avg. in the assay with mouse Tau came to 0.06; with cynomolgus monkey Tau, 2.31; in assay [8], 2.3; in assay [9] it was 2.4; in assay [10], 2.12. Also, the A450 with mouse Tau amounted to 0.06.

B3: Clone 1A5 Fab (Fab, V domains shown)
VH: EVQLQQSGAELVRPGASVKLSCTASGFNIKDSLIHWVKQRPEQGLEWIGWIDPEDGETKYAPKFQDKATKTADTSSNTAYLQLSSLTSEDTAIYYCASGEWDYWGQGTSVTVSS
VL: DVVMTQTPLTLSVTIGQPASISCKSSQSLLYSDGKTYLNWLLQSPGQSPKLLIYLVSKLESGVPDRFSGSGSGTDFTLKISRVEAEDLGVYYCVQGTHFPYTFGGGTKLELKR
notes: as for B2
For B3, the A450 avg. in [2] was found to be 2.48; in assay [3], 2.57; in assay [4], 2.54; in assay [5] it was 2.33; in assay [6], 2.08; in assay [7], 2.58. Also, the A450 avg. with mouse Tau was found to be 2.07; in the assay with cynomolgus monkey Tau, 1.9; in assay [8], 2.08; in [9], 1.19; in [10], 1.64.

B4: Clone 1D10 Fab (Fab, V domains shown)
VH: EVQLQQSGAELVRPGASVKLSCTASGFNIKDSLMHWMKQRPEQGLEWIGWIDPEDGETKYAPKFQDKATLTADTSSNAAYLQLSSLTSEDTAIYYCVRGDWDGGYWGQGTTLTVSS
VL: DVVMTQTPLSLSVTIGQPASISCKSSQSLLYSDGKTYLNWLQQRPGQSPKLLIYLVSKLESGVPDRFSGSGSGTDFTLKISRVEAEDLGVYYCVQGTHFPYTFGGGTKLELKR
notes: as for B2
On to B4, for which the A450 avg. in [2] came out at 1.19; in [3], 1.47; in [4], 1.46; in assay [5] it was 0.939; in assay [6] it was 1.19; in [7], 1.49. Moreover, the A450 avg. with mouse Tau was determined as 1.1; in the assay with cynomolgus monkey Tau, 0.867; in assay [8], 1.13; in assay [9], 0.323; in assay [10], 0.806.

B5: hu1C7.v2 (S49A) (antibody, V domains shown)
VH: EVQLLESGGGLVQPGGSLRLSCAASGFTFSSYGMSWVRQAPGKGLEWVASISGDGGSYIHYADSVKGRFTISRDNSKNTLYLQMNSLRAEDTAVYYCARLPYWGQGTLVTVSS
VL: DIVMTQSPDSLAVSLGERATINCKSSQSLLNSGNQKNYLTWYQQKPGQPPKLLIYWASTRESGVPDRFSGSGSGTDFTLTISSLQAEDVAVYYCQQYNSYPLTFGQGTKVEIKR
For the molecule B5, in [11], the Kd was found to be 1.5 nM, the koff (commonly the rate constant with which the complex falls apart) was 0.0011 s⁻¹ and the kon (commonly a measure of how fast the partners come together) turned out to be 760000 M⁻¹ s⁻¹. In addition, in [12], the Kd is 1.5 nM, the koff came out at 0.0011 s⁻¹ and the kon worked out at 760000 M⁻¹ s⁻¹. For the same molecule, in assay [1], the Kd is approximately 1.6 nM and the “fold weaker binding than chimeric 1C7” value is approximately 2 fold. Further, in assay [13], the Kd is 1.45 nM, the koff came to 0.000851 s⁻¹ and the kon is 585000 M⁻¹ s⁻¹.

B6: hu1C7.v4 (S49A, S75A) (antibody, V domains shown)
VH: B5 VH with S76A
VL: B5 VL
Take B6: in [11], the Kd amounted to 1.8 nM, the koff worked out at 0.0011 s⁻¹ and the kon is 660000 M⁻¹ s⁻¹. Further, in assay [1], the Kd is approximately 1.6 nM and the “fold weaker binding than chimeric 1C7” value is approximately 2 fold.

B7: hu1C7.v3 (S75A) (antibody, V domains shown)
VH: B5 VH with A49S, S76A
VL: B5 VL
Take B7: in [11], the Kd was found to be 1.7 nM, the koff was found to be 0.0012 s⁻¹ and the kon stood at 730000 M⁻¹ s⁻¹. Moreover, in assay [1], the Kd was approximately 1.6 nM and the “fold weaker binding than chimeric 1C7” value was approximately 2 fold.

B8: Clone 1A1 Fab (Fab, V domains shown)
VH: EVQLQQSGAELVRPGASVRLSCTASGFNIKDSLMHWLKQRPEQGLEWIGWIDPEDGETKYAPKFQDKATITADTSSNTAYLQLSSLTSEDTAIYYCTRRDWEGPWGQGTLVTVSA
VL: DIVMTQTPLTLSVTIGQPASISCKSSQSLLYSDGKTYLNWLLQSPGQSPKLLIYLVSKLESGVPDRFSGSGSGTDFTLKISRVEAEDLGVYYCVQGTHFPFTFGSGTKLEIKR
notes: as for B2
For B8, the A450 avg. amounted to 2.37 in assay [2]; 2.5 in assay [3]; 2.52 in assay [4]; 2.39 in assay [5]; 2.09 in [6]; 2.59 in assay [7]. Also, the A450 avg. stood at 1.95 with mouse Tau; 1.81 with cynomolgus monkey Tau; 1.8 in assay [8]; 1.54 in [9]; 1.52 in assay [10].
